{
  "source": "patent US20110229521A1",
  "about": "“NUTRITIONAL SUPPORT OF THE IMMUNE SYSTEM DURING ANTI-CANCER TREATMENT” (priority 2008, published 2011)",
  "molecules": {"B1": {"name": "lactoferrin: diet with 25 mg/day of lactoferrin (protein, UniProt P24627 20-708, looked up)", "Lactotransferrin": "APRKNVRWCTISQPEWFKCRRWQWRMKKLGAPSITCVRRAFALECIRAIAEKKADAVTLDGGMVFEAGRDPYKLRPVAAEIYGTKESPQTHYYAVAVVKKGSNFQLDQLQGRKSCHTGLGRSAGWIIPMGILRPYLSWTESLEPLQGAVAKFFSASCVPCIDRQAYPNLCQLCKGEGENQCACSSREPYFGYSGAFKCLQDGAGDVAFVKETTVFENLPEKADRDQYELLCLNNSRAPVDAFKECHLAQVPSHAVVARSVDGKEDLIWKLLSKAQEKFGKNKSRSFQLFGSPPGQRDLLFKDSALGFLRIPSKVDSALYLGSRYLTTLKNLRETAEEVKARYTRVVWCAVGPEEQKKCQQWSQQSGQNVTCATASTTDDCIVLVLKGEADALNLDGGYIYTAGKCGLVPVLAENRKSSKHSSLDCVLRPTEGYLAVAVVKKANEGLTWNSLKDKKSCHTAVDRTAGWNIPMGLIVNQTGSCAFDEFFSQSCAPGADPKSRLCALCAGDDQGLDKCVPNSKEKYYGYTGAFRCLAEDVGDVAFVKNDTVWENTNGESTADWAKNLNREDFRLLCLDGTRKPVTEAQSCHLAVAPNHAVVSRSDRAAHVKQVLLHQQALFGKNGKNCPDKFCLFKSETKNLLFNDNTECLAKLGGRPTYEEYLGTEYVTAIANLKKCSTSPLLEACAFLTR"}},
  "experiment": "Body weight, haematological evaluation and flow cytometry of tumor-bearing mice on supplemented diets with chemotherapy (Example 2)",
  "type": "in vivo, C57BL/6 (H-2b) mice",
  "description": "Mice. […] The animals were distributed into 7 different group diets. There was a control group that received the diet AIN 93 for adult rodents (maintenance). […] Control animals without chemotherapeutic treatment were run in parallel for all tested diets. Body weight was assessed every two days. Blood samples were obtained at day 2, 4 and 10 after the chemo-treatment and at sacrifice (14 or 28 days). An autopsy was performed and tumor mass was assessed.\nHaematological evaluation.\nFlow cytometric analysis.",
  "data": [
    {"molecule": "B1", "values": [
      {"measurement": "toxicity (bone marrow)", "setting": "chemotherapy treated group compared to the control, FIG. 11", "result": "less toxicity"},
      {"measurement": "Global lymphocyte population", "setting": "following chemotherapy, supplemented diet", "result": "less depressed following chemotherapy"},
      {"measurement": "leukocytic increase", "setting": "oxaliplatin treated animals, supplemented diet", "result": "tended to be higher"},
      {"measurement": "immune cell population / concentration", "setting": "second phase (tumor-induced toxicity)", "result": "increase in their immune cell population"}
    ]}
  ]
}
